Key:
Details in all cases: protein: recombinant; label: 32P 5' end; blunt
[1] = molecular target: GST-Pax6(5a) paired domain (PD5a) (UniProt P63015-2 4-144); assay: EMSA; EMSA: 2 ug protein, 20000 cpm 32P probe, 1 ug poly(dI-dC), 5% TBE polyacrylamide gel; buffer, salt, pH and temperature not given (as in ref. 35)
[2] = molecular target: T1, GST-Pax6 paired domain (PD) (UniProt P63015 4-130); assay: as above
[3] = molecular target: T1, GST-Pax6 paired domain (PD); assay: EMSA; stronger than WT; EMSA: 2 ug protein, 20000 cpm 32P probe, 1 ug poly(dI-dC), 5% TBE polyacrylamide gel; buffer, salt, pH and temperature not given (as in ref. 35)

T1 sequence (P63015 4-130): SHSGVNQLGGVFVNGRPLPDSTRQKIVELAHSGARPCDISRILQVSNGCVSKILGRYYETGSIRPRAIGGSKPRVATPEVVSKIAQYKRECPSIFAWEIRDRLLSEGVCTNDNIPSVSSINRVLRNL
Sequence of GST-Pax6(5a) paired domain (PD5a) (P63015 other isoform, or with tags, fused parts or gaps): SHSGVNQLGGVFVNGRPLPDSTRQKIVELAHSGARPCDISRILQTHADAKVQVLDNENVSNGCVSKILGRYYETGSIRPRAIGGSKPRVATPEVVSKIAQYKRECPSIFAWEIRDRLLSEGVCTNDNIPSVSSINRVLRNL

| Binder | binding result [1] | binding result [2] | binding result [3] |
| --- | --- | --- | --- |
| mDkk3 BSAP WT (dsDNA) DNA 1: CATCTGGGGGCGGGCAGAGCAGCGGGGCGGGGCGGGACGGGCAAGAGGGG DNA 2: CCCCTCTTGCCCGTCCCGCCCCGCCCCGCTGCTCTGCCCGCCCCCAGATG | no binding | binds | – |
| mDkk3 5aCON MUT (dsDNA) DNA 1: GGAGGAAGCTACCCTGTATCCGATTTTTCGAGAGGTGGAGGAG DNA 2: CTCCTCCACCTCTCGAAAAATCGGATACAGGGTAGCTTCCTCC | – | – | binds |
| mDkk3 5aCON OPT (dsDNA) DNA 1: GGAGGAAGCTATGCTCAGTGAGATGTTCATTGAGGTGGAGGAG DNA 2: CTCCTCCACCTCAATGAACATCTCACTGAGCATAGCTTCCTCC | – | – | binds |
